The text below walks through data of patent publication US20210284751A1 (MELLITUS, published 2021).

Assay [1] deals with T1, CD59 (human CD59, hCD59) (human, UniProt P13987 26-102).
T1 construct: also called non-glycated CD59
T1 sequence: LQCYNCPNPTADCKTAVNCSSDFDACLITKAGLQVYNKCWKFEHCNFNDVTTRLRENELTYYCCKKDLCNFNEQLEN
Briefly: hybridoma antibody characterisation, method not described.

Assay [2] deals with T2, K41 Amadori-modified glycated CD59 (GCD59) (human, UniProt P13987 26-102, Amadori-modified (glycated) lysine at K41, numbered on SEQ ID NO: 1).
T2 construct: also called Amadori-modified GCD59; Amadori-modified hGCD59
T2 sequence: T1 sequence
As to the kind of experiment: sandwich ELISA on urine dilutions (6, 3, 1.5, 0.75, 0.37, 0.18 %): H9 capture, D2 detection, HRP secondary antibody, OD 450 nm converted to SPU with the calibration curve. The protocol: GCD59 detection in urine samples was carried out using detection antibody D2, described above, specific for Amadori-modified GCD59. Assay plates were first coated with CD59 capture antibody. H9. Urine samples were obtained from two subjects, one known to have a high level of HbA1C (HbA1C-H) and one known to have a low level of HbA1C (HbAC1-L). High levels of HbA1C are a known indicator of elevated blood glucose. Samples were prepared by first adding beta-mercaptoethanol (BME) to a final concentration of 5%. Samples were then boiled at 100° C. for 5 min and centrifuged to pellet any debris. Supernatants were then isolated for the assay. A surrogate compound standard, as shown in FIG. 27 of U.S. Pat. No. 9,417,248, was used to prepare a dilution series for generating a calibration curve. The Amadori-modified GCD59 surrogate included synthetic compounds including capture and detection peptides linked by a flexible linker.
Standard samples, urine samples, as well as control samples [serum dilution buffer (50 mM Acetic acid/Na acetate; 2% NonIdet P40 Substitute; 0.15% Tween 20; 0.1% Triton X-100; 50 ppm ProClin 300) only] were added to the assay plate in triplicate. Urine samples were further diluted using serum dilution buffer to create a series of conditions ranging from 6% v/v urine sample to 0.2% urine sample in serum dilution buffer. […]

B1: antibody H9 (clone H9), CD59 capture antibody (antibody, mouse IgG1, kappa, V domains shown)
VH: EVQLVESGGDLVKPGGSLKLSCAASGFTFSSYGMSWVRQSPDKRMEWVATISSGGSYTYYPDSVKGRFTVSRDNAKNTLYLQMSSLRSEDTAIFYCVRDRYDGMDYWGQGTSVTVSS
VL: DVVMTQSPLSLPVSLGDQASISCRSSQSLVHSNGNTYLQWYLQKPGQSPNLLIYKVSNRFSGVPDRFSGSGSGTDFTLKISRVEAEDLGVYFCSQSTHVPFTFGSGTKLEIKR
notes: Mouse hybridoma monoclonal antibody
Take B1: the binding result in assay [1] and in assay [2] was “binds” in each case.
